Drawing on patent US20190248907A1 (Merck KGaA, published 2019), this text covers Kd for three molecules.

Sequences and labels used below:
B1: oa CS06 (antibody, V domains shown)
VH: QVQLQQSGAEVKKPGSSAKVSCKASGGTFSSNAISWVRQAPGQGLEWMGGIIPIFGTAIYAQKFQGRVTITADESTSTAYMELSSLRSEDTAVYYCARDQRGYYYYYYYGMDVWGQGTTVTVSS
VL: QLVLTQSPSVSVAPGKTARITCGGNNIRNVGVHWYQKKPGQAPILVVYDDDDRPSGVPERFSGSNSGNTATLTISRVEAGDEADYYCQVWDSATDQRVFGGGTKLTVL
notes: also called one-armed CS06; anti-c-MET clone CS06 (monovalent one-armed format); copies: 1 + 1
B2: biparatopic bispecific heterodimeric immunoglobulin molecule comprising Fab fragments CS06 and B10v5 (bispecific antibody)
chain 1: QLVLTQSPSVSVAPGKTARITCGGNNIRNVGVHWYQKKPGQAPILVVYDDDDRPSGVPERFSGSNSGNTATLTISRVEAGDEADYYCQVWDSATDQRVFGGGTKLTVLGQPKAG
chain 2: B1 VH
chain 3: EPVLTQPPSVSVAPGETATIPCGGDSLGSKIVHWYQQRPGQAPLLVVYDDAARPSGIPERFSGSKSGTTATLTISSVEAGDEADYFCQVYDYHSDVEVFGGGTKLTVLGQPKAA
chain 4: not shown
B3: CS06 IgG1 (antibody, V domains shown)
VH: B1 VH
VL: QLVLTQSPSVSVAPGKTARITCGGNNIRNVGVHWYQKKPGQAPILVVYDDDDRPSGVPERFSGSNSGNTATLTISRVEAGDEADYYCQVWDSATDQRVFGGGTKLTVLG
notes: Bivalent IgG1; also called anti-c-MET clone CS06

For the test, the target named is T1, human c-MET ECD (human, UniProt P08581 25-932).
T1 construct: also called recombinant human c-MET ECD; human c-MET ECD-His
T1 sequence (P08581 25-932 limits assumed): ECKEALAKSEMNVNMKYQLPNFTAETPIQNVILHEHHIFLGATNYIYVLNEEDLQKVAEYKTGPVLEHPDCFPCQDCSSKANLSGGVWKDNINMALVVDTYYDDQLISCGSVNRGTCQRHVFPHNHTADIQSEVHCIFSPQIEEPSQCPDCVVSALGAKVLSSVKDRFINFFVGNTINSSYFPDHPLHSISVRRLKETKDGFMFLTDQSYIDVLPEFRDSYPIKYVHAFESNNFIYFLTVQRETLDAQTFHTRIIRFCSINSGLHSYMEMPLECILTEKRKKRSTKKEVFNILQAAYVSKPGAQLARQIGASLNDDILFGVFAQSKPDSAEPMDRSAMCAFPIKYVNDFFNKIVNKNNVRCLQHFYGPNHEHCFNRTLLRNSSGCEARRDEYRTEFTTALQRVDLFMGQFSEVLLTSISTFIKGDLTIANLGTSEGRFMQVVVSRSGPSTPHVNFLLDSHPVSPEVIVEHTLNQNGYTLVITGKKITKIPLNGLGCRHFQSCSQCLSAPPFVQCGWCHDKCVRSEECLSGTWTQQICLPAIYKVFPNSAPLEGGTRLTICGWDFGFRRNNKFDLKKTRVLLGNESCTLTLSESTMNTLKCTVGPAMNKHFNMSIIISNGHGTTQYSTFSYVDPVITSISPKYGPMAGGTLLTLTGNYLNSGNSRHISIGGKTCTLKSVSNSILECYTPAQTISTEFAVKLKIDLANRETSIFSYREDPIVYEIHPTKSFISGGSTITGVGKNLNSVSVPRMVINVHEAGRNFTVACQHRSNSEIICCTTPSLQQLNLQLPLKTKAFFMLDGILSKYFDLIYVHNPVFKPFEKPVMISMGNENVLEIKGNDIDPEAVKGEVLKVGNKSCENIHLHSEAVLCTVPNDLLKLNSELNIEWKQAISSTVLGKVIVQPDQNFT
As to the kind of experiment: not stated (summary of antibody properties, FIG. 6).
The molecule B1 gave a Kd of approximately 0.3 nM.

In the case of B2, the dissociation constant Kd was approximately 0.0196 nM.

As to B3, the Kd is approximately 0.134 nM.

Usually Kd stands for a measure of binding affinity in units of concentration. Low values mean tighter binding, high ones weaker binding.
